For one molecule, other: bound protein, % of control (same mitochondria without NEM, 12 min) results are on record in article PMC7596997.

The test addresses S. cerevisiae AAC2, P18239. The test can be described thus: binding of [35S]-labeled AAC2 to isolated mitochondria. The settings on record: chain shown with the change, AAC2 lysate preincubated with apyrase, n = 3, read off a plot.

S. cerevisiae AAC2, P18239, sequence (P18239 whole entry, the tested form may be a part): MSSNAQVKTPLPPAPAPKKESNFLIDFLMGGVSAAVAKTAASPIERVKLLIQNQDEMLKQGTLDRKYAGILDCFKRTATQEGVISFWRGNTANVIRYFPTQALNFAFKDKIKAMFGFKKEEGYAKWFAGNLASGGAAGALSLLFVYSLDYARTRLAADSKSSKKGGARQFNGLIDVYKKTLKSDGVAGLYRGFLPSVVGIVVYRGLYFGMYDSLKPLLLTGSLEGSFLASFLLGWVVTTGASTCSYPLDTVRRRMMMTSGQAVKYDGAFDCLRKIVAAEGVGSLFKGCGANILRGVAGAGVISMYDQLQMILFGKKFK

B1: Tom70 in the outer membrane of isolated yeast mitochondria (wild type), P07213 C141A (protein)
chain: MKSFITRNKTAILATVAATGTAIGAYYYYNQLQQQQQRGKKNTINKDEKKDTKDSQKETEGAKKSTAPSNPPIYPVSSNGEPDFSNKANFTAEEKDKYALALKDKGNQFFRNKKYDDAIKYYNWALELKEDPVFYSNLSAAYVSVGDLKKVVEMSTKALELKPDYSKVLLRRASANEGLGKFADAMFDLSVLSLNGDFNDASIEPMLERNLNKQAMSKLKEKFGDIDTATATPTELSTQPAKERKDKQENLPSVTSMASFFGIFKPELTFANYDESNEADKELMNGLSNLYKRSPESYDKADESFTKAARLFEEQLDKNNEDEKLKEKLAISLEHTGIFKFLKNDPLGAHEDIKKAIELFPRVNSYIYMALIMADRNDSTEYYNYFDKALKLDSNNSSVYYHRGQMNFILQNYDQAGKDFDKAKELDPENIFPYIQLACLAYRENKFDDCETLFSEAKRKFPEAPEVPNFFAEILTDKNDFDKALKQYDLAIELENKLDGIYVGIAPLVGKATLLTRNPTVENFIEATNLLEKASKLDPRSEQAKIGLAQMKLQQEDIDEAITLFEESADLARTMEEKLQAITFAEAAKVQQRIRSDPVLAKKIQETLAKLREQGLM
As to B1, the other: bound protein, % of control (same mitochondria without NEM, 12 min) is 95 % of control (mitochondria pretreated with 2 mM NEM, control = untreated Tom70C141A mitochondria at 12 min) and 100 % of control (no NEM, this point is the normalisation control (100%), not a comparison with wild type).
